Results published in the supplement of paper PMC10567573.

B1: RBBP5 (parent)
chain: TGTSNTTAIKSIEFARKGSCFLIN

Variants of: B1
Assay: protein stability index of a GFP-peptide fusion (GPS, HEK-293T) (PSI 1-6); higher = more stable
Conditions: c terminus: a fixed tail appended
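Also: lentivirally expressed fusions sorted by FACS into six bins by GFP to DsRed ratio, PSI derived from sequencing read proportions per bin multiplied by bin number.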

| Variant | protein stability index |
| --- | --- |
| TGTSNTTHIKSIEFARKGSCFLIN [A8H] | 1.85 |
| TGTSNTTYIKSIEFARKGSCFLIN [A8Y] | 2.22 |
| TGTSNTTWIKSIEFARKGSCFLIN [A8W] | 2.62 |
| TGTSNTTCIKSIEFARKGSCFLIN [A8C] | 2.71 |
| TGTSNTTMIKSIEFARKGSCFLIN [A8M] | 2.21 |
| TGTSNTTRIKSIEFARKGSCFLIN [A8R] | 1.62 |
| TGTSNTTVIKSIEFARKGSCFLIN [A8V] | 1.58 |
| TGTSNTTKIKSIEFARKGSCFLIN [A8K] | 2.2 |
| TGTSNTTNIKSIEFARKGSCFLIN [A8N] | 2.56 |
| TGGSNTTAIKSIEFARKGSCFLIN [T3G] | 2.24 |
| TGRSNTTAIKSIEFARKGSCFLIN [T3R] | 1.88 |
| TGWSNTTAIKSIEFARKGSCFLIN [T3W] | 2.02 |
| TGKSNTTAIKSIEFARKGSCFLIN [T3K] | 2.9 |
| TGNSNTTAIKSIEFARKGSCFLIN [T3N] | 1.86 |
| TGTSNSTAIKSIEFARKGSCFLIN [T6S] | 2.64 |
| TGTSNLTAIKSIEFARKGSCFLIN [T6L] | 2.16 |
| TGTSNFTAIKSIEFARKGSCFLIN [T6F] | 2.09 |
| TGTSNCTAIKSIEFARKGSCFLIN [T6C] | 2.05 |
| TGTSNVTAIKSIEFARKGSCFLIN [T6V] | 1.87 |
| TGTSNKTAIKSIEFARKGSCFLIN [T6K] | 2.15 |
| TGTSNHTAIKSIEFARKGSCFLIN [T6H] | 2.67 |
| TGTSNGTAIKSIEFARKGSCFLIN [T6G] | 1.98 |
| TGTCNTTAIKSIEFARKGSCFLIN [S4C] | 2.2 |
| TGTANTTAIKSIEFARKGSCFLIN [S4A] | 2.29 |

| Variant | protein stability index |
| --- | --- |
| TGTQNTTAIKSIEFARKGSCFLIN [S4Q] | 2.54 |
| TGTDNTTAIKSIEFARKGSCFLIN [S4D] | 2.35 |
| TGTHNTTAIKSIEFARKGSCFLIN [S4H] | 2.3 |
| TGTTNTTAIKSIEFARKGSCFLIN [S4T] | 1.95 |
| TGTRNTTAIKSIEFARKGSCFLIN [S4R] | 1.91 |
| TGTYNTTAIKSIEFARKGSCFLIN [S4Y] | 2.41 |
| TGTMNTTAIKSIEFARKGSCFLIN [S4M] | 2.21 |
| TGTSNTTAIKSIEFAYKGSCFLIN [R16Y] | 2.49 |
| TGTSNTTAIKSIEFAAKGSCFLIN [R16A] | 1.89 |
| TGTSNTTAIKSIEFAWKGSCFLIN [R16W] | 1.74 |
| TGTSNTTAIKSIEFALKGSCFLIN [R16L] | 3.26 |
| TGTSNTTAIKSIEFAHKGSCFLIN [R16H] | 2.15 |
| TGTSNTTAIKSIEFACKGSCFLIN [R16C] | 1.77 |
| TGTSNTTAIKSIEFADKGSCFLIN [R16D] | 2.7 |
| TGTSNTTAIKSIEFAQKGSCFLIN [R16Q] | 2.73 |
| TGTSNTTAIKSIEFAGKGSCFLIN [R16G] | 2.42 |
| TGTSNTTAIKSIEFARKKSCFLIN [G18K] | 2.3 |
| TGTSNTTAIKSIEFARKVSCFLIN [G18V] | 3.95 |
| TGTSNTTAIKSIEFARKYSCFLIN [G18Y] | 2.07 |
| TGTSNTTAIKSIEFARKFSCFLIN [G18F] | 1.99 |
| TGTSNTTAIKSIEFARKRSCFLIN [G18R] | 2.15 |
| TGTSNTTAIKSIEFARKASCFLIN [G18A] | 1.9 |
| TGTSNTTAIKSIEFARKTSCFLIN [G18T] | 1.71 |
| TGTSNTTAIKSIEFARKMSCFLIN [G18M] | 1.85 |

| Variant | protein stability index |
| --- | --- |
| TGTSNTTAIKSIEFARKQSCFLIN [G18Q] | 2.28 |
| TGTSNTTAIKSIEFARKWSCFLIN [G18W] | 1.62 |
| TGTSNTTAIKSIEFARKGSCFLIR [N24R] | 2.09 |
| TGTSNTTAIKSIEFARKGSCFLIF [N24F] | 2.74 |
| TGTSNTTAIKSIEFARKGSCFLIP [N24P] | 3.12 |
| TGTSNTTAIKSIEFARKGSCFLIY [N24Y] | 1.96 |
| TGTSNTTAIKSIEFARKGSCFLID [N24D] | 2.85 |
| TGTSNTTAIKSIEFARKGSCFLIA [N24A] | 1.89 |
| TGTSNTTAIHSIEFARKGSCFLIN [K10H] | 2.77 |
| TGTSNTTAIESIEFARKGSCFLIN [K10E] | 2.62 |
| TGTSNTTAIISIEFARKGSCFLIN [K10I] | 2.15 |
| TGTSNTTAIASIEFARKGSCFLIN [K10A] | 1.64 |
| TGTSNTTAITSIEFARKGSCFLIN [K10T] | 1.77 |
| TDTSNTTAIKSIEFARKGSCFLIN [G2D] | 2.62 |
| TVTSNTTAIKSIEFARKGSCFLIN [G2V] | 2.44 |
| TNTSNTTAIKSIEFARKGSCFLIN [G2N] | 2.29 |
| TQTSNTTAIKSIEFARKGSCFLIN [G2Q] | 2.47 |
| TPTSNTTAIKSIEFARKGSCFLIN [G2P] | 2.63 |
| TGTSNTTAIKSIEFARKGSKFLIN [C20K] | 2.58 |
| TGTSNTTAIKSIEFARKGSQFLIN [C20Q] | 2.51 |
| TGTSNTTAIKSIEFARKGSTFLIN [C20T] | 2.56 |
| TGTSNTTAIKSIEFARKGSVFLIN [C20V] | 2.09 |
| TGTSNTTAIKSIEFARKGSIFLIN [C20I] | 2.23 |
| TGTSNTTAIKSIEFARKGSYFLIN [C20Y] | 2.12 |

| Variant | protein stability index |
| --- | --- |
| TGTSNTTAIKSIEFARKGSHFLIN [C20H] | 2.16 |
| TGTSNTTAIKSIEFARKGSDFLIN [C20D] | 2.6 |
| TGTSNTTAIKSIEFARKGSWFLIN [C20W] | 1.63 |
| TGTSNTTAIKSIEFARKGSNFLIN [C20N] | 3.03 |
| TGTSNTTAIKSIEFAREGSCFLIN [K17E] | 2.6 |
| TGTSNTTAIKSIEFARIGSCFLIN [K17I] | 1.29 |
| TGTSNTTAIKSIEFARCGSCFLIN [K17C] | 1.8 |
| TGTSNTTAIKSIEFARWGSCFLIN [K17W] | 2.11 |
| TGTSNTTAIKSIEFARRGSCFLIN [K17R] | 2.7 |
| TGTSNTTAIKSIEFARFGSCFLIN [K17F] | 2.17 |
| TGTSNTTAIKSIEFARNGSCFLIN [K17N] | 2.63 |
| TGTSNTTAIKSIEFARVGSCFLIN [K17V] | 1.7 |
| TGTSNTTAIKSIEFARMGSCFLIN [K17M] | 1.73 |
| EGTSNTTAIKSIEFARKGSCFLIN [T1E] | 3.07 |
| WGTSNTTAIKSIEFARKGSCFLIN [T1W] | 1.69 |
| DGTSNTTAIKSIEFARKGSCFLIN [T1D] | 3.69 |
| KGTSNTTAIKSIEFARKGSCFLIN [T1K] | 2.45 |
| HGTSNTTAIKSIEFARKGSCFLIN [T1H] | 2.59 |
| YGTSNTTAIKSIEFARKGSCFLIN [T1Y] | 1.79 |
| NGTSNTTAIKSIEFARKGSCFLIN [T1N] | 2.3 |
| LGTSNTTAIKSIEFARKGSCFLIN [T1L] | 2.11 |
| RGTSNTTAIKSIEFARKGSCFLIN [T1R] | 2.75 |
